Here are results for 1 molecule from patent publication US20100086958A1, “NOVEL ENZYME” (priority 2008, published 2010).

Series [1] in a line: Steady state kinetics for NADP^+ (FDH-catalysed formate oxidation). Format: biochemical. On the procedure: (§1) BcenFDH1 (Bsp184FDH) and BspFDH2 (Bsp383FDH) catalyzed oxidation of formate to CO2 was monitored by UV/Vis spectrophotometry in a 96-well plate format. A series of eight solutions of formate (0-200 mM) were prepared by successive dilutions of a stock solution of 0.5 M sodium formate in 0.1 M sodium phosphate buffer, pH 7.0. From this series, 170 μL was transferred into wells of the 96-well plate. 10 μL of the FDHs from a stock solution (64.1 μM for BcenFDH1 (Bsp184FDH) and 78.0 μM for BspFDH2 (Bsp383FDH)) were added into each well and equilibrated for 3 min at 30° C. The reaction was initiated by addition of 20 μL of NAD^+ or NADP^+ solution from a freshly prepared stock (10 mM) using an 8-channel pipette. The plate was then immediately placed into the plate reader. The plate was shaken for 5 s to ensure thorough mixing, and then time-based measurements were recorded every 15 s for 10 min. The rate of formate oxidation was calculated using an extinction coefficient of 3.38 mM^−1 (for 200 μL), which was determined using NADH standards. Km and Vmax values were obtained by non-linear regression to the Michaelis-Menten equation (Eq.1 below) using Origin v7 (Microcal Software Inc.).
(§2) Similar procedure were used for determination of Michaelis-Menten parameters for NAD^+ and NADP^+. A series of eight solutions of cofactor (0-75 mM) were prepared by successive dilutions of stock solutions. […] of sodium formate solutions (180 mM in well) were transferred into wells of the 96-well plate. 10 μL of the FDHs from a stock solution (64.1 μM for BcenFDH1 (Bsp184FDH) and 78.0 μM for BspFDH2 (Bsp383FDH)) were added into each well and equilibrated for 3 min at 30° C. The reaction was initiated by addition of 20 μL of NAD^+ or NADP^+ solutions using an 8-channel pipette. The plate was then immediately placed into the plate reader. The plate was shaken for 5 s to ensure thorough mixing, and then time-based measurements were recorded every 15 s for 10 min. The rate of formate oxidation was calculated using an extinction coefficient of 3.38 mM^−1 (for 200 μL), which was determined using NADH standards. Km and Vmax values were obtained by non-linear regression to the Michaelis-Menten equation as before.

Series [2] in a line: pH profile determination of FDH-catalysed formate oxidation. Format: biochemical. The note with it: pHs as low 4 or as high as 10.5. On the procedure: The pH profiles for BcenFDH1 (Bsp184FDH) and BspFDH2 (Bsp383FDH) catalyzed formate oxidation, shown in FIG. 13(a) and (b), were investigated by Uv/Vis spectrophotometry in a 96-well plate format. […] From this series, 170 μL was transferred into wells of the 96-well plate. 10 μL of the FDHs from a stock solution solution (64.1 μM for BcenFDH1 (Bsp184FDH) and 78.0 μM for BspFDH2 (Bsp383FDH)) were added into each well and equilibrated for 3 min at 30° C. The reaction was initiated by addition of 20 μL of NAD^+ solution from a freshly prepared stock (10 mM) using an 8-channel pipette. The plate was then immediately placed into the plate reader. The plate was shaken for 5 s to ensure thorough mixing, and then time-based measurements were recorded every 15 s for 10 min. The rate of formate oxidation was calculated using an extinction coefficient of 3.38 mM^−1 (for 200 μL).

A short description of series [3]: Assay of enzyme activity (specific activity, U/mg). To be noted: unit = μmol formate oxidized per min in the presence of co-factor; This work. Format: biochemical. On the procedure: The reaction was initiated by addition of NAD^+. The total volume of the reaction mixture was 1 mL. Specific activity (U/mg enzyme) was defined as number of μmols of product formed per mg enzyme per minute.

A short description of series [4]: Steady state kinetics for formate oxidation. Format: biochemical. How it is done:
as §1

Series [5] in a line: Steady state kinetics for NAD^+ (FDH-catalysed formate oxidation). It counts as biochemical. The note with it: cofactor NAD^+, 0.18M formate. On the procedure: as §1, §2
Series [6] can be described thus: Thermal stability study (remaining activity after incubation). It counts as physicochemical. How it is done:
FIGS. 19 and 20—show the effect of temperature on the stability of the Bsp184FDH and Bsp383FDH enzymes. In FIG. […] In FIG. 20 (1) Bsp184FDH (2.1 mg/mL) and (2) Bsp383FDH (1.5 mg/mL) were incubated at 60° C. and 70° C. for 48 hours period in a similar way. Remaining activities were assayed under standard assay conditions and were expressed as the percentage of activities.
Thermal stability for purified wild-type BcenFDH1 (Bsp184FDH) and BspFDH2 (Bsp383FDH) catalyzed formate oxidation were investigated by Uv/V is spectrophotometry in a 96-well plate format. The results are illustrated in FIGS. 19 and 20. […] In addition, time based-thermal stability for purified wild-type BcenFDH1 (Bsp184FDH) and BspFDH2 (Bsp383FDH) catalyzed formate oxidation were also investigated at 60° C. and 70° C. over 48 hours in a similar way. The samples were spun down briefly to remove any precipitations before use. 10 μL of heat-treated BcenFDH1 and BspFDH2 were added into each well and equilibrated for 3 min at 30° C. after adding 170 μL of 200 mM sodium formate (dissolving in 50 mM sodium phosphate buffer, pH 7.0.) The reaction was initiated by addition of 20 μL of NADP^+ solution from a freshly prepared stock of 20 mM using an 8-channel pipette. The plate was then immediately placed into the plate reader. The plate was shaken for 5 seconds to ensure thorough mixing. Time-based measurements were recorded every 10 s for 10 min. The rate of formate oxidation was calculated using the absorption coefficient of 3.38 mM^−1 (for 200 μL).

B1: Bsp383FDH: wild type FDH from Burkholderia sp 383, Seq ID No: 1, C-terminal His-tagged (protein, listed as Burkholderia sp.)
chain: MATVLCVLYPDPVDGYPPRYVRDAIPVITHYADGQTAPTPAGPPGFQPGELVGCVSGALGLRGYMEAHGHTLIVTSDKDSPDSEFERRLPEADVVISQPFWPAYLTAERIARAPKLKLALTAGIGSDHVDLDAAARARITVAEVTGSNSISVAEHVVMTTLALVRNYLPSHAIAQQGGWNIADCVSRSYDVEGMHFGTVGAGRIGLAVLRRLKPFGLQLHYTQRHRLDASIEQELGLTYHADAASLASAVDIVNLQIPLYPSTEHLFDAAMIARMKRGAYLINTARAKLVDRDAVVNALTSGHLAGYGGDVWFPQPAPADHPWRTMPFNGMTPHISGTSLSAQARYAAGTLEILQCWFDGKPIRNEYLIVDGGTLAGTGAQSYRLT
modifications: C-terminal His tag
For B1, in series [1] (cofactor NADP^+, 0.18M formate), the Km (commonly the concentration of substrate that gives half-maximal velocity) was found to be 0.7 ± 0.1 mM and the “kcat NADP^+” value is 2.77 ± 0.12 s⁻¹. Moreover, the “cofactor preference for NADP^+, times greater than those of known FDHs such as CmetFDH” value in series [1] (relative to CmetFDH) is 10^6 times. Moreover, the “activity at extreme pH” value in series [2] is listed as “highly active”. Further, in series [3], the “activity with NADP^+” value came out at 8.64 U/mg and the “activity with NAD^+” value is 1.09 U/mg. Further, the kcat – broadly, the maximal rate divided by the concentration of active sites – in series [4] (formate oxidation with NADP^+) came to 6.1148 ± 0.4473 s⁻¹. Further, in series [4] (formate oxidation with NAD^+), the Km came out at 50.1 ± 2.69 mM and the kcat was found to be 0.772 ± 0.0158 s⁻¹. Also, in series [5], the Km worked out at 7.6 ± 2.1 mM and the “kcat NAD^+” value is 0.817 ± 0.13 s⁻¹. The “temperature at which the enzymes denature” value in series [6] was 80 °C. Besides, the “activity lost upon incubation” value in series [6] (55° C. for 2 hours) is recorded as “no activity was lost”. For the same molecule, the “stability at room temperature” value in series [6] (room temperature for weeks) was “stable”.
